Results as given in patent publication US20220177587A1, “METHODS AND USES OF VARIANT CD80 FUSION PROTEINS AND RELATED CONSTRUCTS” (Alpine Immune Sciences, Inc., priority 2018, published 2022).

What was measured:
[1] = molecular target: T1, CD28 (Homo sapiens, UniProt P10747); test: Flow binding to Jurkat/IL2 reporter cells (CD28); design: host or cells: Jurkat cells expressing an IL-2-luciferase reporter; conditions: for CD28 MFI at 33.3 nM: Jurkats (CD28)
How it was run: (§1)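 Cells were first blocked in PBS with 1% BSA and 0.1% sodium azide. Primary staining with fusion protein ran 45 min on ice, and secondary staining with PE anti-human Fc at 1:150 ran 30 min on ice.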

[2] = molecular target: T1, CD28; test: Jurkat/IL2 + CHO/OKT3 +/- PD-L1 reporter assay: PD-L1-dependent CD28 costimulation; assay type: cell-based; design: host or cells: Jurkat cells expressing an IL-2-luciferase reporter; conditions: Jurkat/IL2 + CHO/OKT3/PD-L1; for Fold Increase over WT CD80-IgV-Fe: 5.0 nM
How it was run: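 Readout is relative luminescence from lysed cocultures: test protein given 15 min at room temperature to Jurkat cells before adding CHO artificial APCs displaying OKT3 alone or OKT3 plus PD-L1, then 5 h at 37 °C, 5% CO2.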

[3] = molecular target: huPD-L1 (Homo sapiens, UniProt Q9NZQ7); test: Flow binding to CHO cells stably expressing PD-L1; design: huCTLA4 and huPD-L1, full-length mammalian surface expression constructs were generated; expressed in transfected cells; host or cells: CHO cells, lentiviral transduction, sorted to >98% purity; conditions: for PD-L1 MFI at 33.3 nM: CHO cells stably expressing PD-L1; for Ratio of PDL1:CD28: ratio of MFI at 33.3 nM
Sequence of huPD-L1 (Q9NZQ7 19-290): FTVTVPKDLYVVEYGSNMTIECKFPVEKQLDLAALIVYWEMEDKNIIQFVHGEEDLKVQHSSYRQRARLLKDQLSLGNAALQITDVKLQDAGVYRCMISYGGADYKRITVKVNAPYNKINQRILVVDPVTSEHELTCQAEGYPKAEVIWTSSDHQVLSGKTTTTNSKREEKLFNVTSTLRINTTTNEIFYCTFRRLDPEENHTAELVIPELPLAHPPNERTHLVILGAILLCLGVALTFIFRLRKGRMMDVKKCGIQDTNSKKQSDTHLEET
How it was run: as §1

[4] = molecular target: huCTLA4 (Homo sapiens, UniProt P16410); test: Flow binding to CHO cells stably expressing CTLA4; design: huCTLA4 and huPD-L1, full-length mammalian surface expression constructs were generated; expressed in transfected cells; host or cells: CHO cells, lentiviral transduction, sorted to >98% purity; conditions: for CTLA4 MFI at 33.3 nM: CHO cells stably expressing CTLA4
Sequence of huCTLA4 (P16410 36-223): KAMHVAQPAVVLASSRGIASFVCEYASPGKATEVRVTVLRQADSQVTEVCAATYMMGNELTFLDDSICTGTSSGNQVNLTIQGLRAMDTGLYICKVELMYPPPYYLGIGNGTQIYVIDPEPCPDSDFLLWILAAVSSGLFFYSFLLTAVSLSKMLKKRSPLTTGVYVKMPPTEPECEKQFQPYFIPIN
How it was run: as §1

[5] = Table E19, MFI at 33.3 nM relative to WT CD80 ECD-Fc (Abcam)
[6] = Table E20, MFI at 33.3 nM relative to CD80 WT IgV-Fc

Row | Molecule | CD28 MFI at 33.3 nM ([1]; Table E19) | CD28 Fold change to WT CD80 [1, 5] [fold] | Fold Increase over WT CD80-IgV-Fe ([2]; Table E21) [fold] | Relative Luciferase Units (RLU), CD80 Conc 5.0 nM ([2]; Table E21) [RLU] | PD-L1 MFI at 33.3 nM ([3]; Table E19) | PD-L1 Fold change to WT CD80 [3, 5] [fold] | Ratio of PDL1:CD28 ([3]; Table E19) | CTLA4 MFI at 33.3 nM ([4]; Table E19) | CTLA4 Fold change to WT CD80 [4, 5] [fold] | CD28 MFI at 33.3 nM ([1]; Table E20) | CD28 Fold change to WT CD80 [1, 6] [fold] | Fold Increase over WT CD80-IgV-Fe ([2]; Table E22) [fold] | Relative Luciferase Units (RLU), CD80 Conc 5.0 nM ([2]; Table E22) [RLU] | PD-L1 MFI at 33.3 nM ([3]; Table E20) | PD-L1 Fold change to WT CD80 [3, 6] [fold] | Ratio of PDL1:CD28 ([3]; Table E20) | CTLA4 MFI at 33.3 nM ([4]; Table E20) | CTLA4 Fold change to WT CD80 [4, 6] [fold]
1 | E35D/D46V/M47V/N48K/V68M (protein) VIHVTKEVKEVATLSCGHNVSVEELAQTRIYWQKDKKMVLTMMSGVVKIWPEYKNRTIFDITNNLSIMILALRPSDEGTYECVVLKYEKDAFKREHLAEVTLSVKAD | 1085 | 1.5 | 6.1 | 696 | 25940 | 202.7 | 23.9 | 23880 | 0.6 |  |  |  |  |  |  |  |  | 
2 | E35D/D46V/M47V/V68M/L85Q (protein) VIHVTKEVKEVATLSCGHNVSVEELAQTRIYWQKDKKMVLTMMSGVVNIWPEYKNRTIFDITNNLSIMILALRPSDEGTYECVVQKYEKDAFKREHLAEVTLSVKAD | 331 | 0.5 | 8.5 | 980 | 26290 | 205.4 | 79.4 | 36463 | 0.9 |  |  |  |  |  |  |  |  | 
3 | A26E/M47L/A71G/D90G (protein) VIHVTKEVKEVATLSCGHNVSVEELEQTRIYWQKEKKMVLTMMSGDLNIWPEYKNRTIFDITNNLSIVILGLRPSDEGTYECVVLKYEKGAFKREHLAEVTLSVKAD |  |  |  |  |  |  |  |  |  | 1955 | 44.5 | 2.12 | 827 | 13204 | 302.8 | 6.8 | 21955 | 16.2
4 | H18Y/V68M/A71G/D90G (protein) VIHVTKEVKEVATLSCGYNVSVEELAQTRIYWQKEKKMVLTMMSGDMNIWPEYKNRTIFDITNNLSIMILGLRPSDEGTYECVVLKYEKGAFKREHLAEVTLSVKAD |  |  |  |  |  |  |  |  |  | 3414 | 77.8 | 2.04 | 797 | 30670 | 703.4 | 9.0 | 22321 | 16.4
5 | H18Y/A26E/E35D/M47L (protein) VIHVTKEVKEVATLSCGYNVSVEELEQTRIYWQKDKKMVLTMMSGDLNIWPEYKNRTIFDITNNLSIVILALRPSDEGTYECVVLKYEKDAFKREHLAEVTLSVKAD |  |  |  |  |  |  |  |  |  | 324 | 7.4 | 3.10 | 1208 | 9951 | 228.2 | 30.7 | 23990 | 17.7
6 | A26E/E35D/V68M/D90G (protein) VIHVTKEVKEVATLSCGHNVSVEELEQTRIYWQKDKKMVLTMMSGDMNIWPEYKNRTIFDITNNLSIMILALRPSDEGTYECVVLKYEKGAFKREHLAEVTLSVKAD |  |  |  |  |  |  |  |  |  | 1683 | 38.3 | 2.23 | 871 | 6987 | 160.3 | 4.2 | 13879 | 10.2

Other lines, results leading:

Row | CD28 MFI at 33.3 nM ([1]; Table E19) | CD28 Fold change to WT CD80 [1, 5] [fold] | Fold Increase over WT CD80-IgV-Fe ([2]; Table E21) [fold] | Relative Luciferase Units (RLU), CD80 Conc 5.0 nM ([2]; Table E21) [RLU] | PD-L1 MFI at 33.3 nM ([3]; Table E19) | PD-L1 Fold change to WT CD80 [3, 5] [fold] | Ratio of PDL1:CD28 ([3]; Table E19) | CTLA4 MFI at 33.3 nM ([4]; Table E19) | CTLA4 Fold change to WT CD80 [4, 5] [fold] | CD28 MFI at 33.3 nM ([1]; Table E20) | CD28 Fold change to WT CD80 [1, 6] [fold] | Fold Increase over WT CD80-IgV-Fe ([2]; Table E22) [fold] | Relative Luciferase Units (RLU), CD80 Conc 5.0 nM ([2]; Table E22) [RLU] | PD-L1 MFI at 33.3 nM ([3]; Table E20) | PD-L1 Fold change to WT CD80 [3, 6] [fold] | Ratio of PDL1:CD28 ([3]; Table E20) | CTLA4 MFI at 33.3 nM ([4]; Table E20) | CTLA4 Fold change to WT CD80 [4, 6] [fold] | Molecule
7 | 366 | 0.5 | 4.1 | 472 | 2366 | 18.5 | 6.5 | 42071 | 1.0 |  |  |  |  |  |  |  |  |  | M47V/N48K/K89N (protein) VIHVTKEVKEVATLSCGHNVSVEELAQTRIYWQKEKKMVLTMMSGDVKIWPEYKNRTIFDITNNLSIVILALRPSDEGTYECVVLKYENDAFKREHLAEVTLSVKAD
8 | 701 | 1.0 | 7.1 | 814 | 6669 | 52.1 | 9.5 | 43756 | 1.1 |  |  |  |  |  |  |  |  |  | E35D/M47V/N48K/K89N (protein) VIHVTKEVKEVATLSCGHNVSVEELAQTRIYWQKDKKMVLTMMSGDVKIWPEYKNRTIFDITNNLSIVILALRPSDEGTYECVVLKYENDAFKREHLAEVTLSVKAD
9 | 118 | 0.2 | 7.9 | 907 | 10479 | 81.9 | 88.8 | 26104 | 0.6 |  |  |  |  |  |  |  |  |  | E35D/M47V/N48K/V68M/L85Q (protein) VIHVTKEVKEVATLSCGHNVSVEELAQTRIYWQKDKKMVLTMMSGDVKIWPEYKNRTIFDITNNLSIMILALRPSDEGTYECVVQKYEKDAFKREHLAEVTLSVKAD
10 |  |  |  |  |  |  |  |  |  | 1331 | 30.3 | 2.01 | 784 | 12073 | 276.9 | 9.1 | 20921 | 15.4 | E35D/M47L/A71G/D90G (protein) VIHVTKEVKEVATLSCGHNVSVEELAQTRIYWQKDKKMVLTMMSGDLNIWPEYKNRTIFDITNNLSIVILGLRPSDEGTYECVVLKYEKGAFKREHLAEVTLSVKAD
11 | 246 | 0.3 | 7.4 | 854 | 12085 | 94.4 | 49.1 | 30276 | 0.7 |  |  |  |  |  |  |  |  |  | E35D/M47V/V68M/L85Q/K89N (protein) VIHVTKEVKEVATLSCGHNVSVEELAQTRIYWQKDKKMVLTMMSGDVNIWPEYKNRTIFDITNNLSIMILALRPSDEGTYECVVQKYENDAFKREHLAEVTLSVKAD
12 |  |  |  |  |  |  |  |  |  | 3610 | 82.2 | 1.98 | 771 | 31114 | 713.6 | 8.6 | 17418 | 12.8 | M47L/V68M/A71G/D90G (protein) VIHVTKEVKEVATLSCGHNVSVEELAQTRIYWQKEKKMVLTMMSGDLNIWPEYKNRTIFDITNNLSIMILGLRPSDEGTYECVVLKYEKGAFKREHLAEVTLSVKAD
13 |  |  |  |  |  |  |  |  |  | 3414 | 77.8 | 1.82 | 711 | 23482 | 538.6 | 6.9 | 27607 | 20.3 | E35D/M47L/V68M/D90G (protein) VIHVTKEVKEVATLSCGHNVSVEELAQTRIYWQKDKKMVLTMMSGDLNIWPEYKNRTIFDITNNLSIMILALRPSDEGTYECVVLKYEKGAFKREHLAEVTLSVKAD
